Values joined by “and” are separate entries in the source; they are usually repeats but may differ in a detail not shown here. Identical values can stand only once.
B1: mNeonGreen-pPho4_(3-200), wild type, phosphorylated (domain or fragment)
chain: RTTSEGIHGFVDDLEPKSSILDKVGDFITVNTKRHDGREDFNEQNDELNSQENHNSSENGNENENEQDSLALDDLDRAFELVEGMDMDWMMPSHAHHSPATTATIKPRLLYSPLIHTQSAVPVTISPNLVATATSTTSANKVTKNKSNSSPYLNKRRGKPGPDSATSLFELPDSVIPTPKPKPKPKQYPKVILPSNST
modifications: phosphorylated in vitro by Pho80-Pho85: pS100, pS114, pS128, pS152
B2: pPho4_(1-200), phosphorylated, GST removed (domain or fragment)
chain: MGRTTSEGIHGFVDDLEPKSSILDKVGDFITVNTKRHDGREDFNEQNDELNSQENHNSSENGNENENEQDSLALDDLDRAFELVEGMDMDWMMPSHAHHSPATTATIKPRLLYSPLIHTQSAVPVTISPNLVATATSTTSANKVTKNKSNSSPYLNKRRGKPGPDSATSLFELPDSVIPTPKPKPKPKQYPKVILPSNST
modifications: phosphorylated in vitro by Pho80-Pho85: pS100, pS114, pS128, pS152 (pS114 and pS128 seen in the structure)

Tests used:
Msn5 RRAA (R393A, R458A) = target: T1, Msn5 RRAA (R393A, R458A) (S. cerevisiae, UniProt P52918 1-1224, RRAA (R393) | RRAA (R458)); test: fluorescence polarisation
T1 sequence: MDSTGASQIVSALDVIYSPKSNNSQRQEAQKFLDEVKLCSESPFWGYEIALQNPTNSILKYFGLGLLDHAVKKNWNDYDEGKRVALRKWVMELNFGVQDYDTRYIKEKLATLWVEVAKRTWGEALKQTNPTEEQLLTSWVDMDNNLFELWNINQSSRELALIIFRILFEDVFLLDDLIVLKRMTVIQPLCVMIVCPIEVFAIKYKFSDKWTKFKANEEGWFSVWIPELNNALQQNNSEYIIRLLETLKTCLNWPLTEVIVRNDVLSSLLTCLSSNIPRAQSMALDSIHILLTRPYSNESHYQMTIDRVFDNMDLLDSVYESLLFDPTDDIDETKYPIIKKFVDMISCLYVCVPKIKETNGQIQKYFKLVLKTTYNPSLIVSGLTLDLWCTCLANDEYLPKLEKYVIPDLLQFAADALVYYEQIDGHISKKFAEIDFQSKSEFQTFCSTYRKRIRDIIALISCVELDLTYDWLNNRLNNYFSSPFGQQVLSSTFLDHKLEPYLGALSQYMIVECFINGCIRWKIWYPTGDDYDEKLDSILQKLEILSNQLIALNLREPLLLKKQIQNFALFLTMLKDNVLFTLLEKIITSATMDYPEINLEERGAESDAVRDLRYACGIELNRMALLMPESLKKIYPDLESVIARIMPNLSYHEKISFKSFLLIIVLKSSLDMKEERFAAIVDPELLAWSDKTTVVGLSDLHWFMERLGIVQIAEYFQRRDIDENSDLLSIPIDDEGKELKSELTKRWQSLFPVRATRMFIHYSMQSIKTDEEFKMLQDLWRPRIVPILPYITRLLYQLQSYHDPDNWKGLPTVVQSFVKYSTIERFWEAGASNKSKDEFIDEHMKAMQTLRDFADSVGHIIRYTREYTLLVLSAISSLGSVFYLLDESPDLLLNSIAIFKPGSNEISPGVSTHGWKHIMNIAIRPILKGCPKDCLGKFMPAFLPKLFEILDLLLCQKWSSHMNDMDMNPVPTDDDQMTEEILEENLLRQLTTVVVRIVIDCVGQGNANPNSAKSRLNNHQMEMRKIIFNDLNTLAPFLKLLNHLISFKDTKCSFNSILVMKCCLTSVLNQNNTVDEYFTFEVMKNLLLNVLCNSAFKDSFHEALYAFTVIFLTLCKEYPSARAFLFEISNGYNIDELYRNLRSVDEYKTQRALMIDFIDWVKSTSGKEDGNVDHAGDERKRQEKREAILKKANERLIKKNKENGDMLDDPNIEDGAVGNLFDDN

[1] = target: T2, Msn5 (S. cerevisiae exportin), wild type (S. cerevisiae, UniProt P52918 1-1224); test: fluorescence polarisation
T2 sequence: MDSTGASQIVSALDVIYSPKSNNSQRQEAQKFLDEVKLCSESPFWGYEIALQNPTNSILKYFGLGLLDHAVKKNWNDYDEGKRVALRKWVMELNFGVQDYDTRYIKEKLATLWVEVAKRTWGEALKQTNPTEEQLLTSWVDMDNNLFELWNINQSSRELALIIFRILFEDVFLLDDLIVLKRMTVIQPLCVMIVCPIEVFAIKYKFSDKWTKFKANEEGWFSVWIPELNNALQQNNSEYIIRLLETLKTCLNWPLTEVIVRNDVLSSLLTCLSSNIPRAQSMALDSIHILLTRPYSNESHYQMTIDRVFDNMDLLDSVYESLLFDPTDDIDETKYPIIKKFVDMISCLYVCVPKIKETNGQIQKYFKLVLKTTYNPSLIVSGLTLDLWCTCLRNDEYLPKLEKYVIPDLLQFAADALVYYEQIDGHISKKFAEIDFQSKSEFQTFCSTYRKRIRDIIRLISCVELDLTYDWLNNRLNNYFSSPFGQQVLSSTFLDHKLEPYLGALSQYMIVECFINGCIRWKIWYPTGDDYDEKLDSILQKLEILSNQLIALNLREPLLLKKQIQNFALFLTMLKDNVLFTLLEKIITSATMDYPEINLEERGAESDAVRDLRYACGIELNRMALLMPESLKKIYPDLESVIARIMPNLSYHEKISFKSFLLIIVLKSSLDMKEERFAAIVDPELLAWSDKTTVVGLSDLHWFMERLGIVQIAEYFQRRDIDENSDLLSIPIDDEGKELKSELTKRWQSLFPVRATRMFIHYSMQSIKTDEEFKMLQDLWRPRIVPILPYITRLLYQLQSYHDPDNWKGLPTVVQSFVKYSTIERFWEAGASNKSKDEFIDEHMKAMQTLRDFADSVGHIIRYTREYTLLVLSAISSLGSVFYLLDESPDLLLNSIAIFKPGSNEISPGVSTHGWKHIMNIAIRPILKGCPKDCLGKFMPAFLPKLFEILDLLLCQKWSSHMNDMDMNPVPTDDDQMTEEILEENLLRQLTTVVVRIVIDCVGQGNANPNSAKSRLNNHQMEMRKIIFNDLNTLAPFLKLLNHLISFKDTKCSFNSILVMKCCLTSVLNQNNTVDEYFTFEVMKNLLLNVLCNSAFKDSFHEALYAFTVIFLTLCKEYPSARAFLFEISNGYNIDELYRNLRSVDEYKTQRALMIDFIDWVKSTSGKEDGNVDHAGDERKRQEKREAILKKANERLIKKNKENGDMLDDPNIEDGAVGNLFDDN

[2] = target: T2, Msn5 (S. cerevisiae exportin), wild type; test: cryo-EM structure

Row | Binder | Kd (Msn5 RRAA (R393A, R458A)) | Kd [1] | binding result [2]
1 | B1 | 2200 nM | 20 nM and 44 nM and 25 nM | 
2 | B2 |  |  | binds

From PMC11910620 (Nature Communications, 2025)
